Consider 2 molecules from paper PMC9732821, “Neurotrophic Activity and Its Modulation by Zinc Ion of a Dimeric Peptide Mimicking the Brain-Derived Neurotrophic Factor N-Terminal Region” (ACS Chemical Neuroscience, 2022).

One experiment has as its system TrkB. As to conditions: synaptic cleft; cited from earlier work. From the text:
BDNF is the predominant NT in the adult brain and is widely distributed in the cortical areas, visual cortex, and hippocampus.[3] Activation of TrkB by BDNF initiates downstream signaling cascades mediated by Ras/ERK, PI3K/Akt, and PLC-γ.[4] After its activation, the BDNF–TrkB complex undergoes endocytosis, recycling, or degradation and crucially takes the axonal transport route to sustain neuron survival and differentiation.[5] Furthermore, BDNF/TrkB signaling regulates dendritic branching, the density of spines, and spine morphological specializations, acting both as the mediator and modulat ... || The modulation of the BDNF–TrkB signaling axis has been recently postulated as a drug target for the treatment of neurological diseases, including nerve injury, neurodegenerative diseases, and neuropsychiatric disorders.[15],[16] Unfortunately, the therapeutic use of BDNF, as that of other NTs, is challenging due to the uncontrolled side effects as well as their low bioavailability.[17] To overcome such limitations, the use of peptide fragments that can mimic specific domains of the NTs has been explored in the last few years.[18] The most investigated BDNF structural elements have been so far ...

Experiment [1] deals with TrkB receptor, endogenous in differentiated SH-SY5Y cells (human (endogenous in SH-SY5Y)) (UniProt Q16620). Nature of the experiment: immunostaining of cells or tissue; non-permeabilizing immunofluorescence of membrane-bound BDNF on differentiated SH-SY5Y cells; 1 h treatment with BDNF 150 ng/mL, d-bdnf 10 μM, or both.
Experiment [2] shares this target.

Chain of UniProt Q16620 (Q16620 32-822): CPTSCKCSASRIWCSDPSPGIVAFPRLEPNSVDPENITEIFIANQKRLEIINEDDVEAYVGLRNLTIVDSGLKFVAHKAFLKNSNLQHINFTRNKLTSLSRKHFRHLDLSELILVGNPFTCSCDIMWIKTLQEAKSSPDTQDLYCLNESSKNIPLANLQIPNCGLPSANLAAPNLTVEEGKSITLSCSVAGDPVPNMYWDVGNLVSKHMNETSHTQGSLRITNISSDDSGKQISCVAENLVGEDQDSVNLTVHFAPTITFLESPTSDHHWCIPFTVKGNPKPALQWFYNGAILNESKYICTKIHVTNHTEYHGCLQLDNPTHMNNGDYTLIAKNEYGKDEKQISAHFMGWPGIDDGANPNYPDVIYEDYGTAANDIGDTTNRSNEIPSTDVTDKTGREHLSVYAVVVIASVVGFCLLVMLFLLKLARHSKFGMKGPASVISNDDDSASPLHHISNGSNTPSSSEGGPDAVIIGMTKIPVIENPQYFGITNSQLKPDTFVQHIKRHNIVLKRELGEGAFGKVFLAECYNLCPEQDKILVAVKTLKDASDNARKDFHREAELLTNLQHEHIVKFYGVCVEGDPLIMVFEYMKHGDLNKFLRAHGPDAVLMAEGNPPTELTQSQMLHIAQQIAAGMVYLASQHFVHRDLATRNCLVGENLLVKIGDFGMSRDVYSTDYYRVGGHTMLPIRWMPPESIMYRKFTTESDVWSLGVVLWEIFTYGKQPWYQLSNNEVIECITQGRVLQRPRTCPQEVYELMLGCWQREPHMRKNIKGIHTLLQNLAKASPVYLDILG

On to `[Zn+2]` [zinc], for which, in the experiment on TrkB, the TrkB activation entry is listed as “prompt post-synaptic, BDNF-independent TrkB activation”.

Take “recombinant human mature BDNF (hBDNF) (ligand)”: the increase of the fluorescent signal of membrane-bound BDNF on the cells in experiment [1] turned out to be 40%. Moreover, in experiment [2], the EC50 of ERK phosphorylation, dose-response in differentiated SH-SY5Y cells (referred to the monomer form) worked out at 0.69 nM and the maximal effect (Emax) of ERK phosphorylation, dose-response in differentiated SH-SY5Y cells was determined as 237.
